From patent US20240301048A1 (LANIER BIOTHERAPEUTICS, published 2024)

B1: ABM60 (antibody, V domains shown)
VH: EVHLKESGPDLVAPSQSLSITCTVSGFSLTTYGVHWVRQPPGKGLEWLVVIWSDGLTTYNSALKSRLSISKDNSKSQVFLKMNSLRTDDTAMYYCARDYTYEYAMDYWGQGTTVTVSS
VL: DILLTQSPLSLPVSLGDQASISCRSSQSLVHSNGNTYLHWYLQKPGQSPKLLIYKVSNRFSGVPDRFSGSESGTDFTLKISRVEAEDLGVYFCSQSTHVPFTFGSGTKLEIKR
B2: Ixekizumab (antibody, V domains shown)
VH: QVQLVQSGAEVKKPGSSVKVSCKASGYSFTDYHIHWVRQAPGQGLEWMGVINPMYGTTDYNQRFKGRVTITADESTSTAYMELSSLRSEDTAVYYCARYDYFTGTGVYWGQGTLVTVSS
VL: DIVMTQTPLSLSVTPGQPASISCRSSRSLVHSRGNTYLHWYLQKPGQSPQLLIYKVSNRFIGVPDRFSGSGSGTDFTLKISRVEAEDVGVYYCSQSTHLPFTFGQGTKLEIKR
B3: ABM59 (antibody, V domains shown)
VH: EVKLVESGGGLVKPGGSLKLSCAASGFAFSSYDMSWVRQTPEKRLEWVAYISSGGGNTYYPDTVKGRFTISRDNAKNTLYLQMSSLKSEDTAMYYCAREALTMISTRDYYAMDYWGQGTSVTVSS
VL: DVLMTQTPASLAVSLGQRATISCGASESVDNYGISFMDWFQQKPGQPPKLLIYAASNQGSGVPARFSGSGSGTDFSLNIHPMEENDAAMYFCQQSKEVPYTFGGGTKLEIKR
B4: ABM64 (antibody, V domains shown)
VH: QVHVKQSGPELVRPGVSVKISCKGSGYTFTDYAMHWVKQSHAKSLEWIGVISTYSGNTNYNQKFKGKATMTVDKSSSTAYMELARLTSEDSAIYYCARGNYGSDWGQGTLVTVSA
VL: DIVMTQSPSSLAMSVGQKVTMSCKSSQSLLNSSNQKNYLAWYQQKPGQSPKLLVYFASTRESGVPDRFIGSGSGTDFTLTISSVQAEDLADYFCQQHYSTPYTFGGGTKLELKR
B5: ABM67 (antibody, V domains shown)
VH: EVKLVESGGGLVKPGGSLKLSCAASGFTFSSYAMSWVRQTPEKRLEWVATISSGGSYTYYPDSVKGRFTISRDNAKNTLYLQMSSLRSEDTAMYYCARQNWDAFVYWGQGTLVTASA
VL: DIVLTQSPAILSVSPGERVSFSCRAGQSIGTSIHWYQRRTNGSPRLLIKSASESISGIPSRFSGSGSGTDFTLSINSVESEDIADYYCQQSNSWPLTFGAGTKLEIKR

Target: T1, recombinant human IL-17A (R&D Systems) (human, UniProt Q16552 24-155)
T1 sequence (Q16552 24-155 limits assumed): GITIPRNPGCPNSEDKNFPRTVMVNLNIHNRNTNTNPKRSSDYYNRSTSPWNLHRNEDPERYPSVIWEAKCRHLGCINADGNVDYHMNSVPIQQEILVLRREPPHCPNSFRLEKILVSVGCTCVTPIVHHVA
Assay: cell-based or functional assay

| IC50 (read off the curve), IL-6 in 3T3 cells [µg/mL] | Binder |
| --- | --- |
| ~0.8 | B1 |
| ~0.2 | B2 |

Target: T1, recombinant human IL-17A (R&D Systems)
Assay: SPR, Biacore T-100; antibody immobilized on CM5 chip, rhIL17A 2.5-40 nM as analyte, single cycle kinetics
Description: The surface was regenerated with a 30 second exposure of 10 mM Glycine-HCL pH 1.5. Single cycle kinetic analysis was performed on each antibody with the reference cell subtracted.

| Kd [nM] | koff [s⁻¹] | kon [M⁻¹ s⁻¹] | Binder |
| --- | --- | --- | --- |
| 0.506 | 0.00057 | 1.13e+06 | B3 |
| 0.248 | 0.000311 | 1.25e+06 | B4 |
| 0.24 | 5.65e-05 | 278000 | B1 |
| 0.0069 | 1.39e-05 | 2.01e+06 | B2 |
| 0.169 | 0.000121 | 713000 | B5 |

Target: T1, recombinant human IL-17A (R&D Systems)
Assay: cell-based or functional assay
Remark: another data set of the same source

| IL-17A Bioassay Potency (IC50, nM) [nM] | Binder |
| --- | --- |
| 0.39 | B2 |

Target: T1, recombinant human IL-17A (R&D Systems)
Assay: cell-based or functional assay
Remark: another data set of the same source

| IC50 (read off the curve), CXCL1 in HT29 cells [µg/mL] | Binder |
| --- | --- |
| ~0.1 | B2 |
